The values below are quoted from earlier work in PMC4150018.

The data set has as its target thrombin (Bos taurus) (UniProt P00735).
Chain of UniProt P00735 (P00735 318-366): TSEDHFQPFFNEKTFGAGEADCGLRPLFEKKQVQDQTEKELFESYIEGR

For “rhodniin (Kazal-type thrombin inhibitor) (from UniProt Q06684)”, the Ki (usually a measure of affinity in units of concentration, obtained from inhibition or displacement) is 0.2 pM.
